Measurements taken from article PMC7954794 (2021).

B1: S. cerevisiae Abp1 (full length; SH3 domain 535-592 mutated) / Hua2 (parent complex)
chain 1: MALEPIDYTTHSREIDAEYLKIVRGSDPDTTWLIISPNAKKEYEPESTGSSFHDFLQLFDETKVQYGLARVSPPGSDVEKIIIIGWCPDSAPLKTRASFAANFAAVANNLFKGYHVQVTARDEDDLDENELLMKISNAAGARYSIQTSSKQQGKASTPPVKKSFTPSKSPAPVSKKEPVKTPSPAPAAKISSRVNDNNDDDDWNEPELKERDFDQAPLKPNQSSYKPIGKIDLQKVIAEEKAKEDPRLVQKPTAAGSKIDPSSDIANLKNESKLKRDSEFNSFLGTTKPPSMTESSLKNDDDKVIKGFRNEKSPAQLWAERKAKQNSGNAETKAEAPKPEVPEDEPEGEPDVKDLKSKFEGLAASEKEEEEMENKFAPPPKKSEPTIISPKPFSKPQEPVKAEEAEQPKTDYKKIGNPLPGMHIEADNEEEPEENDDDWDDDEDEAAQPPLPSRNVASGAPVQKEEPEQEEIAPSLPSRNSIPAPKQEEAPEQAPEEEIEEEAEEAAPQLPSRSSAAPPPPPRRATPEKKPKENPWATAEYDYDAAEDNELTFVENDKIINIEFVDDDWWLGELEKDGSKGLFPSNYVSLGN
chain 2: MQQTKFGKMYLDHDSVVEYSEDEIVEADRITLGYKKRLSMIENQMRHLLEDFSLDVQQIEPILADLQKYYDAFLQLLQKRNKSLQCKRSTHQPVPSPMNSQTSTNAKVNLSGKLMKFQLNSVQKFDEENILRILQNKIEFEHYFQIDKGKKQKVLLLAVYQCLNGPTRLHKVLNIEGIIHNNSIRTILGKQVSSSKWTVFLYDVKLVLLAHRQDVPNLETSKMIVRYGDLFPCALYFKDHTAY

Variants of: B1
Test: DHFR protein-fragment complementation in yeast (Abp1-DHFR F[1,2] x partner-DHFR F[3]), deep mutational scanning, second methotrexate selection vs reference; S. cerevisiae, DHFR-PCA selection in liquid with methotrexate at 30 C, two 72 h selections (the score uses the second); reference = the pre-selection culture

screen value	Variant
-2.62 DMS score: mean over two replicates of log2(f_test/f_ref + 0.5)/ln 2, minus the synonymous-codon median (not a log2 …	chain 1 F564K
0.421 DMS score: mean over two replicates of log2(f_test/f_ref + 0.5)/ln 2, minus the synonymous-codon median (not a log2 …	chain 1 F564M
-0.852 DMS score: mean over two replicates of log2(f_test/f_ref + 0.5)/ln 2, minus the synonymous-codon median (not a log2 …	chain 1 I560F
0.252 DMS score: mean over two replicates of log2(f_test/f_ref + 0.5)/ln 2, minus the synonymous-codon median (not a log2 …	chain 1 N592V
0.311 DMS score: mean over two replicates of log2(f_test/f_ref + 0.5)/ln 2, minus the synonymous-codon median (not a log2 …	chain 1 N592I
0.755 DMS score: mean over two replicates of log2(f_test/f_ref + 0.5)/ln 2, minus the synonymous-codon median (not a log2 …	chain 1 N592P
-0.425 DMS score: mean over two replicates of log2(f_test/f_ref + 0.5)/ln 2, minus the synonymous-codon median (not a log2 …	chain 1 L571S
0.744 DMS score: mean over two replicates of log2(f_test/f_ref + 0.5)/ln 2, minus the synonymous-codon median (not a log2 …	chain 1 L571H
0.356 DMS score: mean over two replicates of log2(f_test/f_ref + 0.5)/ln 2, minus the synonymous-codon median (not a log2 …	chain 1 N549I
0.0866 DMS score: mean over two replicates of log2(f_test/f_ref + 0.5)/ln 2, minus the synonymous-codon median (not a log2 …	chain 1 G578N
0.339 DMS score: mean over two replicates of log2(f_test/f_ref + 0.5)/ln 2, minus the synonymous-codon median (not a log2 …	chain 1 G578H
-0.671 DMS score: mean over two replicates of log2(f_test/f_ref + 0.5)/ln 2, minus the synonymous-codon median (not a log2 …	chain 1 G578S
-2.1 DMS score: mean over two replicates of log2(f_test/f_ref + 0.5)/ln 2, minus the synonymous-codon median (not a log2 …	chain 1 E547S
-2.26 DMS score: mean over two replicates of log2(f_test/f_ref + 0.5)/ln 2, minus the synonymous-codon median (not a log2 …	chain 1 E547Q
-2.81 DMS score: mean over two replicates of log2(f_test/f_ref + 0.5)/ln 2, minus the synonymous-codon median (not a log2 …	chain 1 W569Q
-2.1 DMS score: mean over two replicates of log2(f_test/f_ref + 0.5)/ln 2, minus the synonymous-codon median (not a log2 …	chain 1 D566Y
-0.973 DMS score: mean over two replicates of log2(f_test/f_ref + 0.5)/ln 2, minus the synonymous-codon median (not a log2 …	chain 1 G591C

screen value	Variant
0.711 DMS score: mean over two replicates of log2(f_test/f_ref + 0.5)/ln 2, minus the synonymous-codon median (not a log2 …	chain 1 D544R
0.0871 DMS score: mean over two replicates of log2(f_test/f_ref + 0.5)/ln 2, minus the synonymous-codon median (not a log2 …	chain 1 D544W
-0.226 DMS score: mean over two replicates of log2(f_test/f_ref + 0.5)/ln 2, minus the synonymous-codon median (not a log2 …	chain 1 D577T
0.3 DMS score: mean over two replicates of log2(f_test/f_ref + 0.5)/ln 2, minus the synonymous-codon median (not a log2 …	chain 1 D577S
-0.0718 DMS score: mean over two replicates of log2(f_test/f_ref + 0.5)/ln 2, minus the synonymous-codon median (not a log2 …	chain 1 V565P
-0.352 DMS score: mean over two replicates of log2(f_test/f_ref + 0.5)/ln 2, minus the synonymous-codon median (not a log2 …	chain 1 V565N
0.578 DMS score: mean over two replicates of log2(f_test/f_ref + 0.5)/ln 2, minus the synonymous-codon median (not a log2 …	chain 1 V565T
-0.567 DMS score: mean over two replicates of log2(f_test/f_ref + 0.5)/ln 2, minus the synonymous-codon median (not a log2 …	chain 1 V565A
-0.283 DMS score: mean over two replicates of log2(f_test/f_ref + 0.5)/ln 2, minus the synonymous-codon median (not a log2 …	chain 1 E573I
-0.0881 DMS score: mean over two replicates of log2(f_test/f_ref + 0.5)/ln 2, minus the synonymous-codon median (not a log2 …	chain 1 E573Q
-0.235 DMS score: mean over two replicates of log2(f_test/f_ref + 0.5)/ln 2, minus the synonymous-codon median (not a log2 …	chain 1 S579E
0.43 DMS score: mean over two replicates of log2(f_test/f_ref + 0.5)/ln 2, minus the synonymous-codon median (not a log2 …	chain 1 L590I
-0.496 DMS score: mean over two replicates of log2(f_test/f_ref + 0.5)/ln 2, minus the synonymous-codon median (not a log2 …	chain 1 L574C
-1.53 DMS score: mean over two replicates of log2(f_test/f_ref + 0.5)/ln 2, minus the synonymous-codon median (not a log2 …	chain 1 N586E
1.04 DMS score: mean over two replicates of log2(f_test/f_ref + 0.5)/ln 2, minus the synonymous-codon median (not a log2 …	chain 1 N586V
-0.863 DMS score: mean over two replicates of log2(f_test/f_ref + 0.5)/ln 2, minus the synonymous-codon median (not a log2 …	chain 1 N586L
1.83 DMS score: mean over two replicates of log2(f_test/f_ref + 0.5)/ln 2, minus the synonymous-codon median (not a log2 …	chain 1 N586T

Further lines, the variant ahead of its results:

Variant	screen value
chain 1 F564R	-2.96 DMS score: mean over two replicates of log2(f_test/f_ref + 0.5)/ln 2, minus the synonymous-codon median (not a log2 …
chain 1 K558M	-0.491 DMS score: mean over two replicates of log2(f_test/f_ref + 0.5)/ln 2, minus the synonymous-codon median (not a log2 …
chain 1 I560C	0.328 DMS score: mean over two replicates of log2(f_test/f_ref + 0.5)/ln 2, minus the synonymous-codon median (not a log2 …
chain 1 I560T	-0.415 DMS score: mean over two replicates of log2(f_test/f_ref + 0.5)/ln 2, minus the synonymous-codon median (not a log2 …
chain 1 I560E	-0.924 DMS score: mean over two replicates of log2(f_test/f_ref + 0.5)/ln 2, minus the synonymous-codon median (not a log2 …
chain 1 I560K	0.427 DMS score: mean over two replicates of log2(f_test/f_ref + 0.5)/ln 2, minus the synonymous-codon median (not a log2 …
chain 1 I560M	0.263 DMS score: mean over two replicates of log2(f_test/f_ref + 0.5)/ln 2, minus the synonymous-codon median (not a log2 …
chain 1 N592L	0.472 DMS score: mean over two replicates of log2(f_test/f_ref + 0.5)/ln 2, minus the synonymous-codon median (not a log2 …
chain 1 N592W	-0.139 DMS score: mean over two replicates of log2(f_test/f_ref + 0.5)/ln 2, minus the synonymous-codon median (not a log2 …
chain 1 N592K	-0.463 DMS score: mean over two replicates of log2(f_test/f_ref + 0.5)/ln 2, minus the synonymous-codon median (not a log2 …
chain 1 N549D	0.4 DMS score: mean over two replicates of log2(f_test/f_ref + 0.5)/ln 2, minus the synonymous-codon median (not a log2 …
chain 1 N549S	1.83 DMS score: mean over two replicates of log2(f_test/f_ref + 0.5)/ln 2, minus the synonymous-codon median (not a log2 …
chain 1 N549M	1.68 DMS score: mean over two replicates of log2(f_test/f_ref + 0.5)/ln 2, minus the synonymous-codon median (not a log2 …
chain 1 N549L	0.763 DMS score: mean over two replicates of log2(f_test/f_ref + 0.5)/ln 2, minus the synonymous-codon median (not a log2 …
chain 1 N549T	1.38 DMS score: mean over two replicates of log2(f_test/f_ref + 0.5)/ln 2, minus the synonymous-codon median (not a log2 …
chain 1 G578A	-0.527 DMS score: mean over two replicates of log2(f_test/f_ref + 0.5)/ln 2, minus the synonymous-codon median (not a log2 …
chain 1 S585P	-2.72 DMS score: mean over two replicates of log2(f_test/f_ref + 0.5)/ln 2, minus the synonymous-codon median (not a log2 …
chain 1 S585C	1.03 DMS score: mean over two replicates of log2(f_test/f_ref + 0.5)/ln 2, minus the synonymous-codon median (not a log2 …
chain 1 S585G	-1.85 DMS score: mean over two replicates of log2(f_test/f_ref + 0.5)/ln 2, minus the synonymous-codon median (not a log2 …
chain 1 S585T	-0.67 DMS score: mean over two replicates of log2(f_test/f_ref + 0.5)/ln 2, minus the synonymous-codon median (not a log2 …
chain 1 S585M	0.746 DMS score: mean over two replicates of log2(f_test/f_ref + 0.5)/ln 2, minus the synonymous-codon median (not a log2 …

Variant	screen value
chain 1 E547K	-2.17 DMS score: mean over two replicates of log2(f_test/f_ref + 0.5)/ln 2, minus the synonymous-codon median (not a log2 …
chain 1 E547Y	-0.85 DMS score: mean over two replicates of log2(f_test/f_ref + 0.5)/ln 2, minus the synonymous-codon median (not a log2 …
chain 1 D568V	-2.62 DMS score: mean over two replicates of log2(f_test/f_ref + 0.5)/ln 2, minus the synonymous-codon median (not a log2 …
chain 1 D568Y	-2.08 DMS score: mean over two replicates of log2(f_test/f_ref + 0.5)/ln 2, minus the synonymous-codon median (not a log2 …
chain 1 D568E	-1.5 DMS score: mean over two replicates of log2(f_test/f_ref + 0.5)/ln 2, minus the synonymous-codon median (not a log2 …
chain 1 N556E	-0.0705 DMS score: mean over two replicates of log2(f_test/f_ref + 0.5)/ln 2, minus the synonymous-codon median (not a log2 …
chain 1 G591F	0.26 DMS score: mean over two replicates of log2(f_test/f_ref + 0.5)/ln 2, minus the synonymous-codon median (not a log2 …
chain 1 G591D	-0.157 DMS score: mean over two replicates of log2(f_test/f_ref + 0.5)/ln 2, minus the synonymous-codon median (not a log2 …
chain 1 D544V	0.356 DMS score: mean over two replicates of log2(f_test/f_ref + 0.5)/ln 2, minus the synonymous-codon median (not a log2 …
chain 1 D544S	0.42 DMS score: mean over two replicates of log2(f_test/f_ref + 0.5)/ln 2, minus the synonymous-codon median (not a log2 …
chain 1 D544Q	0.66 DMS score: mean over two replicates of log2(f_test/f_ref + 0.5)/ln 2, minus the synonymous-codon median (not a log2 …
chain 1 E573T	0.75 DMS score: mean over two replicates of log2(f_test/f_ref + 0.5)/ln 2, minus the synonymous-codon median (not a log2 …
chain 1 S579N	0.51 DMS score: mean over two replicates of log2(f_test/f_ref + 0.5)/ln 2, minus the synonymous-codon median (not a log2 …
chain 1 S579C	-0.407 DMS score: mean over two replicates of log2(f_test/f_ref + 0.5)/ln 2, minus the synonymous-codon median (not a log2 …
chain 1 L590M	-0.242 DMS score: mean over two replicates of log2(f_test/f_ref + 0.5)/ln 2, minus the synonymous-codon median (not a log2 …
chain 1 F553L	0.618 DMS score: mean over two replicates of log2(f_test/f_ref + 0.5)/ln 2, minus the synonymous-codon median (not a log2 …
chain 1 F553M	0.868 DMS score: mean over two replicates of log2(f_test/f_ref + 0.5)/ln 2, minus the synonymous-codon median (not a log2 …
chain 1 N586S	2 DMS score: mean over two replicates of log2(f_test/f_ref + 0.5)/ln 2, minus the synonymous-codon median (not a log2 …
chain 1 N586Q	-1.03 DMS score: mean over two replicates of log2(f_test/f_ref + 0.5)/ln 2, minus the synonymous-codon median (not a log2 …
chain 1 N586A	1.82 DMS score: mean over two replicates of log2(f_test/f_ref + 0.5)/ln 2, minus the synonymous-codon median (not a log2 …
